From US20090203610A1, “METHODS OF TREATING OBESITY OR DIABETES USING NT-4/5” (RINAT NEUROSCIENCE CORPORATION, priority 2004, published 2009)

Assays:
Type in all cases: in vivo
db/db mice [1] = experiment: Food intake of db/db mice (Example 1); conditions: for food intake, mean: NT-4/5 20 mg/kg s.c., Rosiglitazone 3 mg/kg p.o.
Method: Throughout the experiment period (T1-T26), daily individual body weights as well as food intake per cage were measured.

DIO mice [2] = experiment: Respiratory quotient and energy expenditure by indirect calorimetry (CCMS) in DIO mice (Example 9)
Source text: (§1) Test animals: Mice with diet induced obesity (DIO) were used in this study. 29 male C57BL/6J mice were weaned at 4 weeks of age. Immediately after weaning they were put on 58% high fat diet (D12331i, Research Diet) through out the study. The DIO mice at 13 weeks of age weighing in the range of 28-40 g were used in this study.
Administration of NT-4/5: NT-4/5 was obtained from Genentech Inc. or produced as described in U.S. Pat. No. 6,184,360. The mice were divided into 2 groups of equivalent body weight distribution (8 mice per group). The mice were acclimated individually in the Comprehensive Cage Monitoring System (CCMS, Columbus Instruments) for 2 days, in preparation for the indirect calorimetry, before the treatment started. Each group received 5 daily subcutaneous doses of either vehicle or 10 mg/kg of NT-4/5, respectively. Body weight and food intake were monitored 5 days per week through out the entire study. […] The body composition, i.e. percent lean body mass, fat content, and bone density was determined the day both before treatment started (day 0) and the final day of treatment (day 5) with a PIXImus Mouse Densitometer (GE Lunar Medical Systems, Madison, Wis.) using software version 1.46. […]

[3] = tested on: NONcNZO-10 polygenic obese mice; experiment: Water intake, electrolyte balance and endocrine functions in NONcNZO-10 mice (Example 4)
Source text: Test animals: 40 male NONcNZO-10 polygenic obese mice obtained from Jackson Laboratory at 10 weeks of age weighing in the range of 26-32 g were used in this study.
Administration of NT-4/5: NT-4/5 was produced in E. coli as descried in U.S. Pat. No. 6,184,360. The mice were divided into 6 groups of equivalent body weight and baseline blood glucose distribution (6-7 mice per group). […] A “paired-fed” control group received daily injection of vehicle, but were only fed with the same amount of food the 3 mg/kg group consumed the previous day. On the day when the treatment started (day 1), a baseline blood samples were collected for measuring glucose and triglyceride. Triglyceride level was measured on day 10. At the end of the study (day 12), a terminal blood sample was collected to determine glucose, triglyceride, electrolytes (Na, K, Cl), testoterone, corticosterone, thyroid hormone (total T4) and thyroid stimulating hormone (TSH) levels. Electrolytes, free testosterone, T4 and TSH levels of serum samples were measured by AniLytics (Gaithesburg, M.D) according to the standard protocols employed by the vendor. Other analytes were measured as described above. Body weight, food intake were monitored 5 days per week through out the entire study. Daily water intake was measured from day 5 through day 7.
The effects of NT-4/5 treatment on water intake, electrolyte balance and endocrine functions were also tested. Water intake was measured from day 5 through 7. The electrolyte (i.e., Na, K, and Cl) concentrations were measured using the terminal blood samples taken on day 12. […] One way ANOVA followed by Dunnett's post-test were used for statistical analysis.

db/db mice [4] = experiment: Long term glucose control in db/db mice (Example 14)
Method: Db/db mice maintained as described in Example 1 were divided into five groups (groups 1-5). Group 1 were administered with vehicle (PBS). Group 2, group 3, group 4, group 5 were each administered with NT-4/5 at the doses of 2 mg/kg, 5 mg/kg, 10 mg/kg, and 20 mg/kg, respectively. Both the vehicle and NT-4/5 were administered to each group of the mice subcutaneously once daily from day 1 to day 26. One day before beginning the treatment (day 0), blood samples were collected from the mice as described previously for the determination of baseline levels of serum biomarkers (glucose and insulin). On day 45, HbA1c level was measured. Glucose tolerance test was performed on day 54 (28 days after the last dose of NT-4/5 treatment). Intraperitoneal (IP) glucose tolerance test was conducted by fasting the mice overnight (16 hours) before giving them an IP injection of a load of 2 grams of glucose/kg of body weight. Serum glucose and insulin were also measured.

DIO mice [5] = experiment: Body weight, food intake, body composition and bone density (PIXImus) in DIO mice (Example 9)
Source text: as §1
Administration of NT-4/5: NT-4/5 was obtained from Genentech Inc. or produced as described in U.S. Pat. No. 6,184,360. The mice were divided into 2 groups of equivalent body weight distribution (8 mice per group). The mice were acclimated individually in the Comprehensive Cage Monitoring System (CCMS, Columbus Instruments) for 2 days, in preparation for the indirect calorimetry, before the treatment started. Each group received 5 daily subcutaneous doses of either vehicle or 10 mg/kg of NT-4/5, respectively. Body weight and food intake were monitored 5 days per week through out the entire study. The CCMS monitoring and data analysis of oxygen consumption and carbon dioxide production were carried out according published and commonly accepted protocols as described at website of Jackson Laboratory. The body composition, i.e. percent lean body mass, fat content, and bone density was determined the day both before treatment started (day 0) and the final day of treatment (day 5) with a PIXImus Mouse Densitometer (GE Lunar Medical Systems, Madison, Wis.) using software version 1.46. Brommage et al., Am. J. Physiol. Endocrinol. Metab. 285: 454-459 (2003).

With `CN(CCOc1ccc(CC2SC(=O)NC2=O)cc1)c1ccccn1` (centres unmarked) [Rosiglitazone, reference compound] the “food intake, mean” value (db/db mice [1]; Day 1) was 100.8 g/kg/day, the “food intake, mean” value (db/db mice [1]; Day 2) was 124.9 g/kg/day and the “food intake, mean” value (db/db mice [1]; Day 3) was 137.8 g/kg/day. For the same molecule, the “food intake, mean” value (db/db mice [1]; Day 5) was 143.1 g/kg/day, the “food intake, mean” value (db/db mice [1]; Day 6) was 63.4 g/kg/day and the “food intake, mean” value (db/db mice [1]; Day 7) was 96.6 g/kg/day. For the same molecule, the “food intake, mean” value (db/db mice [1]; Day 8) was 129.1 g/kg/day, the “food intake, mean” value (db/db mice [1]; Day 9) was 139.3 g/kg/day and the “food intake, mean” value (db/db mice [1]; Day 10) was 140.2 g/kg/day. The “food intake, mean” value (db/db mice [1]; Day 11) was 128.1 g/kg/day, the “food intake, mean” value (db/db mice [1]; Day 12) was 114.4 g/kg/day and the “food intake, mean” value (db/db mice [1]; Day 13) was 98.3 g/kg/day. For the same molecule, the “food intake, mean” value (db/db mice [1]; Day 14) was 129.1 g/kg/day, the “food intake, mean” value (db/db mice [1]; Day 15) was 100.3 g/kg/day and the “food intake, mean” value (db/db mice [1]; Day 18) was 108.2 g/kg/day. The “food intake, mean” value (db/db mice [1]; Day 19) was 102.0 g/kg/day, the “food intake, mean” value (db/db mice [1]; Day 20) was 90.5 g/kg/day and the “food intake, mean” value (db/db mice [1]; Day 21) was 129.9 g/kg/day. For the same molecule, the “food intake, mean” value (db/db mice [1]; Day 22) was 122.3 g/kg/day, the “food intake, mean” value (db/db mice [1]; Day 25) was 125.4 g/kg/day and the “food intake, mean” value (db/db mice [1]; Day 26) was 109.2 g/kg/day.

B1: NT-4/5: mature human neurotrophin-4/5 (SEQ ID NO:1), obtained from Genentech or produced in E. coli (protein, listed as Homo sapiens)
chain: GVSETAPASRRGELAVCDAVSGWVTDRRTAVDLRGREVEVLGEVPAAGGSPLRQYFFETRCKADNAEEGGPGAGGGGCRGVDRRHWVSECKAKQSYVRALTADAQGRVGWRWIRIDTACVCTLLSRTGRA
B1 was tested, and the “respiratory quotient (RQ=Vco2/Vo2)” value (DIO mice [2]; 10 mg/kg s.c. daily, P=0.0025) was “reduced the respiratory quotient”, the “estimated cumulative energy expenditure” value (DIO mice [2]; day 1 to day 5, 10 mg/kg, vs vehicle) was “No change” and the “food intakes” value (db/db mice [1]; 20 mg/kg s.c.) was “dramatically suppressed”. The “food intake, mean” value (db/db mice [1]; Day 1) was 104.1 g/kg/day, the “food intake, mean” value (db/db mice [1]; Day 2) was 56.9 g/kg/day and the “food intake, mean” value (db/db mice [1]; Day 3) was 90.7 g/kg/day. The “food intake, mean” value (db/db mice [1]; Day 4) was 68.6 g/kg/day, the “food intake, mean” value (db/db mice [1]; Day 5) was 44.1 g/kg/day and the “food intake, mean” value (db/db mice [1]; Day 6) was 38.5 g/kg/day. For the same molecule, the “food intake, mean” value (db/db mice [1]; Day 7) was 43.1 g/kg/day, the “food intake, mean” value (db/db mice [1]; Day 8) was 63.4 g/kg/day and the “food intake, mean” value (db/db mice [1]; Day 9) was 45.6 g/kg/day. The “food intake, mean” value (db/db mice [1]; Day 10) was 51.8 g/kg/day, the “food intake, mean” value (db/db mice [1]; Day 11) was 56.2 g/kg/day and the “food intake, mean” value (db/db mice [1]; Day 12) was 62.6 g/kg/day. The “food intake, mean” value (db/db mice [1]; Day 13) was 42.3 g/kg/day, the “food intake, mean” value (db/db mice [1]; Day 14) was 76.3 g/kg/day and the “food intake, mean” value (db/db mice [1]; Day 15) was 69.9 g/kg/day. For the same molecule, the “food intake, mean” value (db/db mice [1]; Day 19) was 78.0 g/kg/day, the “food intake, mean” value (db/db mice [1]; Day 20) was 79.1 g/kg/day and the “food intake, mean” value (db/db mice [1]; Day 21) was 123.9 g/kg/day. For the same molecule, the “food intake, mean” value (db/db mice [1]; Day 22) was 114.4 g/kg/day, the “food intake, mean” value (db/db mice [1]; Day 25) was 120.6 g/kg/day and the “food intake, mean” value (db/db mice [1]; Day 26) was 116.3 g/kg/day. The serum corticosterone levels ([3]; 0.1-3 mg/kg/day, day 12) was “did not significantly change”, the testoterone levels ([3]; 0.1-3 mg/kg/day, day 12) was “did not significantly change” and the “thyroid stimulating hormone (TSH) level” value ([3]; compared to the vehicle control) was “no change”. The “Total thyroxine T4 reduction” value ([3]; daily 3 mg/kg, still within normal range) was “about 33%”, the “treatment groups showing a statistically significant difference from vehicle in water intake” value ([3]; day 5 through 7, 0.1, 0.3, 1 and 3 mg/kg) was “None” and the serum insulin levels (db/db mice [4]; 10 mg/kg/d, day 6, P<0.05) was “significant reduction”. The serum insulin levels (db/db mice [4]; 20 mg/kg/d, day 6 and day 14, P<0.05) was “significant reduction”, the “non-fasting serum glucose level reduction” value (db/db mice [4]; all treatment groups, remained low until day 29) was “more than 50%” and the “HbA1c levels versus vehicle” value (db/db mice [4]; day 45 (15 days post-dose), 2, 5, 10 and 20 mg/kg s.c. daily day 1 to 26) was “significantly lower than the vehicle group”. The glucose tolerance (db/db mice [4]; day 54, 28 days after the last dose) was “significantly improved glucose tolerance”, the “body fat content” value (DIO mice [5]; 10 mg/kg s.c. daily) was “significantly reduced” and the “body weight” value (DIO mice [5]; 10 mg/kg s.c. daily) was “significantly reduced”. The “food intake” value (DIO mice [5]; 10 mg/kg s.c. daily) was “significantly reduced”, the “lean body mass” value (DIO mice [5]; 10 mg/kg s.c. daily) was “but not the lean body mass” and the “Bone mineral density (mean±SEM)” value (DIO mice [5]; day 0, 10 mg/kg group) was 0.5235±0.0158 g/cm^2. The “Bone mineral density (mean±SEM)” value (DIO mice [5]; day 5, 10 mg/kg s.c. daily) was 0.5452±0.0142 g/cm^2 and the “bone density versus vehicle” value (DIO mice [5]; day 5, P<0.05) was “significantly different from that of the vehicle”.
